Measured values taken from the supplement of paper PMC12042874.
± gives the uncertainty stated by the source.

assay: amyloid nucleation score (Sup35N fusion, yeast selection) (log enrichment); library NNK1; higher = more nucleation; inactive = no reads after selection
Procedure, shortened: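 Three technical output replicates were used for random libraries. Psi-negative yeast expressing peptides of 20 random codons fused to Sup35N were induced with 100 μM copper sulfate for 24 hours and grown 7 days at 30°C on medium lacking adenine and uracil, and input and output plasmid inserts were Illumina-sequenced, excluding sequences with under 100 input reads. The nucleation score is the DiMSum log enrichment of output over input reads, centred on the mode score of non-aggregating sequences.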

Substance | amyloid nucleation score
IECPMAYTKTYFVYESEKRN | inactive
WVLVIVLLRRWHHRDGAGQS | 0.57 ± 0.47
EIQGPVRT | -0.233 ± 0.59
TSMWTYY | 0.298 ± 0.33
NVKPSDDNVSLRNYGIRYLE | -0.29 ± 1.1
TWGSGY | -0.797 ± 0.93
DARLFDFYFANLVSSQGNCF | 1.09 ± 0.56
NYVSLGDVKRRMPGLFELTA | 0.048 ± 0.43
LCRFSAEDHCYADCTVDHCC | -0.244 ± 0.66
NILMFEMVVRSFIGLTEKFL | 0.69 ± 1
EVRTEMIHCNLLTMRFCVLA | 0.047 ± 0.64
DLVSTVKDGAECDDKEECSL | -0.147 ± 0.26
TIFLQALGYSRWLLEISMDR | -1.06 ± 0.96
FYPLVTFFVLHHGNMNIHRV | 6.778 ± 0.066
RLLPGFERGVLYYWA | 0.568 ± 0.43
IHHSLHYPLYSWKSNWRTWG | -0.353 ± 0.61
SLRCVPVVSMRVRSDSSLYK | 0.529 ± 0.9
TDEVDDIQF | 0.552 ± 0.59
YWTALTFSHY | 0.486 ± 0.82
WPRVGETSRVNLTTGIMS | -0.297 ± 0.29
YYVVVFVANAVFPQYPDPRN | 7.21 ± 0.055
ELFAFCMVPYYTRNMLWLVG | 0.584 ± 0.97
GTKWVTLQRGGRLGMGRRSD | 0.562 ± 1.2
WGEFYVNSSNFVNMQSVWQQ | -0.257 ± 1.7
VTFRIVRVLPMEPVRTRAGD | -0.972 ± 0.54

Substance | amyloid nucleation score
EAGHSIFNGNWRGID | -0.536 ± 1.2
SCLPDQMKVVVPLMWLKFSR | -0.266 ± 0.33
NAMVDGQGILIHSL | inactive
WNEWRGHVTILGDLYSYRHT | 3.6 ± 0.16
NINYLFVLYMDGSCMYWRAL | 6.354 ± 0.049
SGNKGRLSLLYYILFMPWLA | -0.412 ± 1
FFINQRDLLS | -0.084 ± 0.46
YHVRLV | 0.147 ± 0.34
QFSCIPESTYSS | 0.047 ± 0.41
HWLGYVVLDLFDWPYCMIDL | 1.38 ± 0.5
ISHNQIWVRIGISRLFQHKV | 2 ± 0.35
RVSMVEVNLIYYMLPGHA | -0.125 ± 0.54
RDTICITL | 0.311 ± 0.82
HQFSVHIPCCYSVPGNLYGW | 0.888 ± 0.73
KADIFYSLCFLRVEG | -0.338 ± 0.79
PRNPMRSESILFCGNFVGRK | -0.759 ± 0.59
VSCMRDIIRLCYQQTPICKF | -0.272 ± 0.84
SGVLLINGVA | 0.699 ± 0.42
CPGLFVGLCPMAHMVACCHR | inactive
PGVSDPYLDECKVTFKI | 0.715 ± 0.31
LVGGVTNWWCVEVDQKGQNG | inactive
KGSSAMPL | inactive
SIIYQVRRLCGSYVSILGSQ | 0.251 ± 0.69
DGGNVV | 0.452 ± 1.2
TCILDHGPSMGRHSLGALIL | -0.969 ± 1.1

Substance | amyloid nucleation score
FGHYALRANILLTPITKGMS | 0.892 ± 0.56
RILTDLRKICADCNRILPFW | -0.557 ± 1.2
QGSDAYHSMNMQLWVSRTLT | 0.18 ± 0.36
PGRSSRLR | -0.071 ± 1.1
LTFLRIYAIDSEPHLSGTML | -0.51 ± 0.71
PSTPQSHKMMGYRFRDRTGW | -1.03 ± 2.7
KLCRFCNRVCYCQ | -0.691 ± 1
QILCLTVVSVFQGYSVMIPF | 0.022 ± 0.32
DMNDYSK | -0.592 ± 0.39
SELIAQDMPQIENLTVDAAW | -0.38 ± 0.35
VEGLERLLVLWHWPFAWNYF | -0.735 ± 1.4
NGYYRLSWIKWVQKDGRVRR | 0.598 ± 1
MYSHFCVYCNFYLSCNSSLI | 7.034 ± 0.05
DSTILNSLSPVWPRSATGPS | -0.529 ± 0.63
ATTLGCQWDWKWSAFGAWLQ | -1.08 ± 1.1
MVKYYNTQHDGVSFIEIRLL | 0.527 ± 0.33
YFSGLKDFILISNQNGSS | 2.66 ± 0.2
LRAYSVAFYRLPHVSN | 1.35 ± 0.79
HLINVQ | 0.632 ± 0.53
TVLVT | -0.461 ± 0.48
NHCSLFCAFSW | 1.86 ± 0.67
YCPSC | 0.859 ± 0.42
FDWGGTAYKKA | 1.01 ± 0.97
KLINCLGIVL | -0.92 ± 1.1
EDLRVTGAKGYGCAECRACV | -0.186 ± 1.9

Substance | amyloid nucleation score
ALCLKGSMNVEFMIRTSGFN | 0.705 ± 0.51
ISPLSQYARLVRQVSRAWYD | 0.569 ± 0.87
VSFGIFMNESYV | 1.52 ± 0.098
ENITPPLYNDDYRYQ | 0.305 ± 0.58
ILSVVYVLVCVVQVLCKQWH | 0.163 ± 0.43
FRICYCWFGGEKDHRNFQIG | 3.86 ± 0.06
AVRWLHIGWSKETGRNCDCR | 0.671 ± 0.64
SLQPVYAATCSSFHYSFFAG | 4.89 ± 0.074
CFYAA | -0.557 ± 0.56
LSTTWDFESMGVRVSREYPG | 0.351 ± 0.58
SSYRNWYRRSGDQLYYLEP | 0.876 ± 0.42
CVLPYCS | 0.297 ± 0.54
GLLIFMITTLPFCFWCTVPR | inactive
FIPQFYSVAMKLGCVRFVVL | 0.577 ± 0.56
SADPFVFVALQWNHGVGSWR | 4.06 ± 0.069
LGFRVNWIDHPRSNRSTAGL | 0.604 ± 0.97
FLWDNAVSKVKFITFVWPHI | 0.86 ± 0.32
SKIHYMF | -0.942 ± 0.57
FHPKFWCNRFS | -0.442 ± 0.72
SSVFCFIGKASEAVILAIYC | -0.052 ± 0.79
YKNIPFTYGSFVLASYMSRK | 0.368 ± 0.63
RVKEPFRTYSRTALMC | 0.306 ± 0.41
GKSEVLTFGEGAHVGRSRFY | 0.367 ± 0.46
SYMKQINTGKVFRAHYVLLA | 0.117 ± 1.1
RSFNYVLSTL | 0.45 ± 0.42

Substance | amyloid nucleation score
PTGVMM | -0.338 ± 0.51
TFQGARYYYWPAVF | 1.33 ± 0.63
HMRYWLLQYGVILAQG | 0.71 ± 0.42
SHRSRGLANRSCDGVPTVRR | 1.84 ± 0.46
DVYVSCGYVSQMGPHAEWDG | 0.102 ± 0.54
EDSLFRSVLILMSVMFIQVD | 1.05 ± 0.38
TYFFKLNP | -1.07 ± 1.4
HTLDSISGSCGPLIAIVDFQ | inactive
MFGQWMAPHQTRFGSGQFGW | -0.038 ± 0.38
NVLWIPSSGISSVRLEGIAM | 0.393 ± 0.46
RCIVWC | 0.207 ± 0.56
VLARNRWRRKWRHTRGWVRG | 0.157 ± 1.4
HYHFDTACVWCDYSVHGNKD | 7.38 ± 0.057
SGAVCIQALKVDTQCFADMI | -0.413 ± 0.38
MSSVVLANFEGPAHELATGV | -0.072 ± 0.58
LAIEENVRDQSGDYVWALIL | -0.122 ± 0.35
SVVLQTHFAFSSFELKSKVA | -0.54 ± 0.39
IFYFVL | 6.8 ± 0.074
RYMDMLLRTDWDWLVSQCRF | -0.344 ± 0.33
FFAGSQIFIHRSLEWI | 1.68 ± 0.17
TSHSGIEFRLEFARSSPPSQ | -0.161 ± 0.66
YFDWTRVGYNYGSILLPVEA | 0.135 ± 0.51
WIMVFWEFVNLTCNNRILDN | -0.588 ± 0.72
EIHGCGCPLSKDGGGAFMWA | 1.22 ± 0.63
GYTRGDDSGAVHSLSWVFAG | -0.361 ± 1.7

Substance | amyloid nucleation score
RYNMPFYRDRRFCFFEKGLG | -0.077 ± 0.77
MWSGLIDYMEYLLGWLCT | 0.528 ± 1.2
RTCHDWVIEGSMRILTARIM | -1.29 ± 1.8
HNGRVFVMRWLYGVLGECG | -1.31 ± 1.1
SWMSRKEENSGLILVAVYLV | 1.29 ± 0.76
ACETWVVAIDMVSRSPCRCC | 0.113 ± 0.97
SSSSML | -0.202 ± 0.47
ARYPRGDGVGDMSSRLIVVY | 1.26 ± 0.2
YRKFENGVSVIRFEVQCTLV | 4.88 ± 0.072
PYLYRTLKKPLATHWSQFVK | -1.22 ± 0.9
RLLGYLAGVGNVKICRPSAV | 0 ± 1
MSSIKQY | -1.07 ± 2.4
ILVVAVI | -0.64 ± 0.39
YAALVHTHLKDYEISIYVIN | 0.988 ± 0.43
CIFTRKGIEVVCWLEGRMVP | 0.411 ± 1.2
YMYQIG | -0.691 ± 1.7
WENTSRKYVAANDCARMRLG | -0.281 ± 0.41
KHVGWSYG | 0.779 ± 0.48
GSFVGRR | 0.241 ± 0.46
NSITAQRVWVPPFVCLGDRY | 0.146 ± 0.44
KENQSIRFWVD | inactive
DAFAGF | 0.054 ± 0.59
AAAFYWLN | -1.2 ± 1.3
VAHSLYLNIYGFQLMS | 7.454 ± 0.06
ISVCFWSIKYRSWAILMPKG | 0.077 ± 0.58

Substance | amyloid nucleation score
TSHPFLLQFMDDPFELSLAQ | -0.714 ± 0.48
LRSLAPCVLGKTGESEPRAF | 0.056 ± 0.58
RCCYCLGLFVWATCVGGVRT | 3.1 ± 0.24
TMQFFHERGYLLKSRYAGAW | -0.273 ± 0.98
MIDRRKSLVEGRGRNCVSGC | -0.646 ± 1.1
YKESPYNYTWGTVLVGCMVI | -0.702 ± 1.1
RILMFKYGKTWRPQCCQD | 0.04 ± 0.53
DGKKYTVMSFSEQSK | -0.368 ± 1.7
MGFDLSRRTCLYYLVTLSW | 0.014 ± 1.1
SHPMDKRLWEKSYKAVGVCV | 0.174 ± 0.58
TLSTVTG | 0.357 ± 0.37
HWPGLVEYGLGWLRGRLVMG | 0.139 ± 0.6
SCVLRRNSHRIMDSYPRYGQ | 0.151 ± 0.29
ILTFQSCRRFACKAFMFRRR | 2.07 ± 0.16
QTRWACTTQCGCKCFFE | 1.53 ± 0.15
PCWGGTLGSVKLVVSSSA | inactive
EWTSAWW | -0.355 ± 0.36
WLLISSALIIYVRHGLIRSM | -0.455 ± 0.81
MSVLAIMHLGPGHFAAAYY | 0.186 ± 0.4
GVVITSPWGA | 1.18 ± 0.85
GFSIYRCHYFSGRMVTNVSM | -0.475 ± 1.7
FWPNRLR | 0.169 ± 0.56
